Substrate: COc1c(O)c(C)c(CC=C(C)C)c(O)c1OC
Test: O2 consumption, Clark-type electrode
Format: biochemical, Escherichia coli
Conditions: no cardiolipin, 0.025% DDM, 50 mM MOPS, 100 mM NaCl, pH 7.5, 37 °C, 10 mM DTT

Row | Protein | Km [µM]
1 | cytochrome bo3 (E. coli) (Escherichia coli K-12) (protein, His-tagged complex overexpressed in E. coli GO105/pJRhisA, Ni-Sepharose-purified in DDM) MFGKLSLDAVPFHEPIVMVTIAGIILGGLALVGLITYFGKWTYLWKEWLTSVDHKRLGIMYIIVAIVMLLRGFADAIMMRSQQALASAGEAGFLPPHHYDQIFTAHGVIMIFFVAMPFVIGLMNLVVPLQIGARDVAFPFLNNLSFWFTVVGVILVNVSLGVGEFAQTGWLAYPPLSGIEYSPGVGVDYWIWSLQLSGIGTTLTGINFFVTILKMRAPGMTMFKMPVFTWASLCANVLIIASFPILTVTVALLTLDRYLGTHFFTNDMGGNMMMYINLIWAWGHPEVYILILPVFGVFSEIAATFSRKRLFGYTSLVWATVCITVLSFIVWLHHFFTMGAGANVNAFFGITTMIIAIPTGVKIFNWLFTMYQGRIVFHSAMLWTIGFIVTFSVGGMTGVLLAVPGADFVLHNSLFLIAHFHNVIIGGVVFGCFAGMTYWWPKAFGFKLNETWGKRAFWFWIIGFFVAFMPLYALGFMGMTRRLSQQIDPQFHTMLMIAASGAVLIALGILCLVIQMYVSIRDRDQNRDLTGDPWGGRTLEWATSSPPPFYNFAVVPHVHERDAFWEMKEKGEAYKKPDHYEEIHMPKNSGAGIVIAAFSTIFGFAMIWHIWWLAIVGFAGMIITWIVKSFDEDVDYYVPVAEIEKLENQHFDEITKAGLKNGN | 56 ± 13
2 | cytochrome bd (E. coli) (Escherichia coli K-12) (protein, CydABX complex, Strep-tag, expressed in E. coli MB43, streptactin-purified in DDM) MLDIVELSRLQFALTAMYHFLFVPLTLGMAFLLAIMETVYVLSGKQIYKDMTKFWGKLFGINFALGVATGLTMEFQFGTNWSYYSHYVGDIFGAPLAIEGLMAFFLESTFVGLFFFGWDRLGKVQHMCVTWLVALGSNLSALWILVANGWMQNPIASDFNFETMRMEMVSFSELVLNPVAQVKFVHTVASGYVTGAMFILGISAWYMLKGRDFAFAKRSFAIAASFGMAAVLSVIVLGDESGYEMGDVQKTKLAAIEAEWETQPAPAAFTLFGIPDQEEETNKFAIQIPYALGIIATRSVDTPVIGLKELMVQHEERIRNGMKAYSLLEQLRSGSTDQAVRDQFNSMKKDLGYGLLLKRYTPNVADATEAQIQQATKDSIPRVAPLYFAFRIMVACGFLLLAIIALSFWSVIRNRIGEKKWLLRAALYGIPLPWIAVEAGWFVAEYGRQPWAIGEVLPTAVANSSLTAGDLIFSMVLICGLYTLFLVAELFLMFKFARLGPSSLKTGRYHFEQSSTTTQPAR | 95 ± 16

Reference: publication PMC8044227, “Cardiolipin enhances the enzymatic activity of cytochrome bd and cytochrome bo3 solubilized in dodecyl-maltoside” (Scientific Reports, 2021)
